Test results as given in article doi:10.1101/2020.05.13.093591.

Molecular target: PfPDI8 (PF3D7_0827900), 3xV5-tagged at the endogenous locus (P. falciparum (3D7))
Experiment: cross-linking + co-IP

Q: Which fold increase of co-immunoprecipitated PfBiP with DVSF against without DVSF does the source give for “PfBiP, the Hsp70 Binding immunoglobulin Protein (natural protein)” here?
A: The fold increase of co-immunoprecipitated PfBiP with DVSF against without DVSF was 2 fold.
